Measurements from patent US20230147852A1 (SORRENTO THERAPEUTICS, published 2023).

T1: Mouse LAG3 (mouse, UniProt Q61790)
T1 construct: recombinant, His-tagged, coated on a Ni-NTA plate; also called mouse LAG3-His Tag recombinant protein
T1 sequence (antigen, looked up): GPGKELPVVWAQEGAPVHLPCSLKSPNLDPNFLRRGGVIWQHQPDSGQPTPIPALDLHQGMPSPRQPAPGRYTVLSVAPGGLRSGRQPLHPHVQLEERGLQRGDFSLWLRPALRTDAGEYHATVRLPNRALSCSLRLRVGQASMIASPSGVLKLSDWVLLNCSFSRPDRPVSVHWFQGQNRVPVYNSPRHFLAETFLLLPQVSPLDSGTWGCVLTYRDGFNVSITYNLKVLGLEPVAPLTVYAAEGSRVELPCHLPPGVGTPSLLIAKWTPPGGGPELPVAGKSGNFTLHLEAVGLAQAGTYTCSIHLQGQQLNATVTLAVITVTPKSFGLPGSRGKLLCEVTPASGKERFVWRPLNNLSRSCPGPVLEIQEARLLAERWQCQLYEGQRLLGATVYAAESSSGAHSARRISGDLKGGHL

T2: Recombinant human LAG3-His (Sino Biological; catalogue No. 16498-H08H) (human, UniProt P18627 23-450)
T2 construct: also called human LAG3 His-tag protein; CD223
T2 sequence: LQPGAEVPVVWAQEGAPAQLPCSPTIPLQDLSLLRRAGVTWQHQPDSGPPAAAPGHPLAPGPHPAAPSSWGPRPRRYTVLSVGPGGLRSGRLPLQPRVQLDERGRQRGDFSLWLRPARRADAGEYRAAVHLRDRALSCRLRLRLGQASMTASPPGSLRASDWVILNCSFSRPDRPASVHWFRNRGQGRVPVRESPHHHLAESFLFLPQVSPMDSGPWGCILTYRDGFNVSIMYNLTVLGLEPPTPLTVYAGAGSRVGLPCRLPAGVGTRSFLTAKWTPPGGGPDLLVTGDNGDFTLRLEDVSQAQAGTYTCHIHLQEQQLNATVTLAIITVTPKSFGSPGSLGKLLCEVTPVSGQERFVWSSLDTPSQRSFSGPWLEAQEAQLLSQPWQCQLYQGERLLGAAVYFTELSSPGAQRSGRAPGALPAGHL

T3: recombinant human LAG3-Fc Tag protein (Sino Biological; catalogue no. 16498-H05H) (human, UniProt P18627)
T3 construct: recombinant, soluble
T3 sequence (fusion chain, looked up): T2 sequence

T4: human LAG3 on LAG3/NFAT-Luc reporter Jurkat cells (human, UniProt P18627)
T4 construct: on the surface of transfected Jurkat cells; also called human LAG3 expressed on Jurkat cells (BPS Biosciences; catalogue No. 71278)
T4 sequence (antigen, looked up): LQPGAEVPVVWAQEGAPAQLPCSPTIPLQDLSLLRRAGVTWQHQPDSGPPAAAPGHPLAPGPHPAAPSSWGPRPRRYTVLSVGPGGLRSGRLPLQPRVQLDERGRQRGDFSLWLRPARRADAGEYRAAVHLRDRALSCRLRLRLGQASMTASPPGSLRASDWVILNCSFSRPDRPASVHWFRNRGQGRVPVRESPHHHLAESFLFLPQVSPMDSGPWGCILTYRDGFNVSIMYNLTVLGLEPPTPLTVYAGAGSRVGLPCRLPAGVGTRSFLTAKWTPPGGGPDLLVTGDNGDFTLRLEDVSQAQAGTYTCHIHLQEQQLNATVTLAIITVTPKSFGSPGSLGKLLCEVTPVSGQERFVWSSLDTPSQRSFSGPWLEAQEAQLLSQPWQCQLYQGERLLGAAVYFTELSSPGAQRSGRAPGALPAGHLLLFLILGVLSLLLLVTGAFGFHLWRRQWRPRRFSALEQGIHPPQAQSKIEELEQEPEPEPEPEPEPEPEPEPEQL

B1: 1C5-3A6 (antibody, V domains shown)
VH: QVQLVQSGAEVKKPGASVKVSCKASGYTLTDYYIHWVRQAPGQGLEWVGWINPNSGGTNYEQKFQGRVTMTWDTSISTAYMELSRLTSDDTAVYYCAREGWSNDWYVGYYFDYWGQGTLVTVSS
VL: DIQMTQSPLSLSASVGDRVSITCRASQYIGTSLNWYEQKPGNSPKLLITGASRLQSGVPSRFSGSGSGTDFTLTINTLQPDDLATYYCHQSYDDPPTFGQGTKLEIK
notes: also called anti-LAG3 antibody 1C5-3A6
B2: 5C8 (antibody, V domains shown)
VH: QVQLVQSGAEVKKPGASVKVSCKASGYTFTSYGISWVRQAPGQGLEWMGWISAYNGNTNYAQKLQGRVTMTTDTSTSTAYMELRSLRSEDTAVYYCARDSGYDFEDWFDPWGQGTLVTVSS
VL: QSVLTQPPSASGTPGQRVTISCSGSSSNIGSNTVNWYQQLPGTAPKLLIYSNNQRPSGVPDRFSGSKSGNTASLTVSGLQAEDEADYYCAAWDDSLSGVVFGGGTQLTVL
notes: also called anti-LAG3 antibody 5C8
B3: 8D9 (antibody, V domains shown)
VH: QVQLVQSGAEVRKPGSSVKVSCKASGGTFSNYAFSWVRQAPGLGLEWLGAIIPEFDTANYAQKFKDRVTITADDSTTTVYMELSSLRSEDTAVYYCASGMWDYYGSGSSIDYWGQGTLVTVSS
VL: QSVLTQPPSASGTPGQRVTISCSGSNSDIGRNPVNWYHQFPGTAPKLLIFSNSHRPSGVPDRFSGSKSGTSASLAIGGLQSDDEADYYCAAWSDSLNGYVFGTGTKLTVL
notes: also called anti-LAG3 antibody 8D9; Clone 8D9

Experiments:
[1] = molecular target: T1, Mouse LAG3; experiment: […], antibody ([…]) at 2 µg/mL, […]
[2] = molecular target: T2, Recombinant human LAG3-His (Sino …); experiment: ELISA: antibody coated at 5 µg/mL, soluble human LAG3-His titrated (x-axis: Human LAG3, µg/ml), OD at 450nm
[3] = molecular target: T2, Recombinant human LAG3-His (Sino …); experiment: SPR (Biacore), antibody captured by anti-human Fc, human LAG3-His as analyte, 1:1 model
[4] = molecular target: T1, Mouse LAG3; experiment: ELISA: LAG3-His coated at 2 µg/mL on a Ni-NTA plate, antibody (IgG4) at 2 µg/mL, anti-human Fc-HRP, OD at 450nm
[5] = molecular target: T2, Recombinant human LAG3-His (Sino …); experiment: SPR (Biacore): antibody captured on anti-human Fc, human LAG3-His in solution
[6] = molecular target: T3, recombinant human LAG3-Fc Tag protein …; experiment: ELISA: antibody coated at 5 µg/mL captures human LAG3-Fc at 2 µg/mL; how the black bars (LAG3 binding) were detected is not told
[7] = molecular target: T4, human LAG3 on LAG3/NFAT-Luc reporter …; experiment: Flow cytometry on human LAG3/NFAT-Luc Jurkat cells, ΔMFI = LAG3 Jurkat minus wild-type Jurkat, AF647 anti-human IgG

Binder	binding result [1]	EC50 (read off the curve) [2]	Kd [3]	binding result [4]	binding result [5]	binding result [6]	binding result [7]
B1	binds	~0.07 µg/mL	64.3 pM	–	–	–	–
B2	–	~0.02 µg/mL	–	no binding (tested: 2 µg/mL)	–	–	–
B3	no binding (tested: 2 µg/mL)	–	–	–	binds	binds	binds
